# B1: TEX264 C-terminal half (186-313), recombinant (domain or fragment, UniProt Q9Y6I9 186-313, looked up)
# chain: RQGDFYVPEMKETEWKWRGLVEAIDTQVDGTGADTMSDTSSVSLEVSPGSRETSAATLSPGASSRGWDDGDTRSEHSYSESGASGSSFEELDLEGEGPLGESRLDPGTEPLGTTKWLWEPTAPEKGKE
# notes: The range 186-313 of the methods is tied to the 'C-terminal half' of the results by its position; source: E. coli expression system, purified
# Target: T1, PARP1, recombinant, full length (printed as GFP-PARP1 in the results) (UniProt P09874 1-1014)
# T1 construct: Full-length PARP1 cloned into the NcoI and BamHI sites of the pNIC28 vector; The results call the purified protein GFP-PARP1; the methods describe full-length PARP1 in pNIC28 without naming GFP; source: E. coli expression system, purified
# Assay: pull-down; in vitro; PARP1 (2.5 µM) loaded on PARP1-trap beads, TEX264 (2.5 µM) added, 2 hrs at 4°C; 50 mM HEPES pH 7.4, 500 mM NaCl, 0.01% Triton X-100, 1 mM TCEP; stringent washes with 0.1% Triton X-100; Western blot
# Details: both partners purified
# T1 sequence (P09874 whole entry): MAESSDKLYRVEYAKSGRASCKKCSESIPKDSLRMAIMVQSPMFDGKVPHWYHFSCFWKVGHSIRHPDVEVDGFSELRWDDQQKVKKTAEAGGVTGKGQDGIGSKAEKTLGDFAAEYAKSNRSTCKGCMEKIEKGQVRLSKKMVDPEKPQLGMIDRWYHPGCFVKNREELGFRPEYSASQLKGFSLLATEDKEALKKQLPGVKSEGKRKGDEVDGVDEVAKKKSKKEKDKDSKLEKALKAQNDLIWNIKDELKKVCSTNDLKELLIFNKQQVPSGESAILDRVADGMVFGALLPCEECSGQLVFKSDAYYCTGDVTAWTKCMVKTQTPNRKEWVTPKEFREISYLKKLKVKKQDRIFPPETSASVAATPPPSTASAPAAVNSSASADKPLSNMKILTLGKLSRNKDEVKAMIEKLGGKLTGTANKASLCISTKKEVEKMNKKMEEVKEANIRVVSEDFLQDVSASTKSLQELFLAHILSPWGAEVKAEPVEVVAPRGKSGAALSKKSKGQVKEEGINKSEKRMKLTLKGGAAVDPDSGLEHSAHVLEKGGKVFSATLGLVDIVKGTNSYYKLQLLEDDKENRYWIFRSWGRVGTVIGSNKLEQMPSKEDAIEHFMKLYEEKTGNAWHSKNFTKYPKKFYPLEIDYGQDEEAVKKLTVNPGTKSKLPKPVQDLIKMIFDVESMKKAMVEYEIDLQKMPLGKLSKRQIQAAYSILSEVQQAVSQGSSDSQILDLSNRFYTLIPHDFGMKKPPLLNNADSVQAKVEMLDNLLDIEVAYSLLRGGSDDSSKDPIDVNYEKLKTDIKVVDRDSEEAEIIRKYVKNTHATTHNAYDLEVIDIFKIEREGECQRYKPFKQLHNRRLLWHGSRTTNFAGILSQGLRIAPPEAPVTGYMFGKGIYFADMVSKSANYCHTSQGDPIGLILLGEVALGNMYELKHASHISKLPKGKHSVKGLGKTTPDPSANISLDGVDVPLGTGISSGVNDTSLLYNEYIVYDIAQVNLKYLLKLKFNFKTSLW
binder,measurement,value
B1,binding result,binds

# Reference: doi:10.64898/2025.12.11.692727, “Nucleophagy removes cytotoxic trapped PARP1” (bioRxiv, 2025)
